Laboratory results as given in the supplement of paper PMC10724198.
± gives the standard deviation of the averaged measurements.

What was measured:
Saccharomyces cerevisiae [1] = test: protein stability index of tFT-peptide fusion (C-terminal peptide) (PSI (0-1 scale)); higher = more stable (slower turnover); settings: genetic background: wild type; temperature: 30 C
Saccharomyces cerevisiae [2] = test: as above
Method: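 MPS profiling in S. cerevisiae of the tFT-X12 degron library: putative degron peptides plus stable controls, 12 aa, fused to the C-terminus of a sfGFP-mCherry timer. Cells are FACS-sorted into 8 mCherry/sfGFP bins and deep-sequenced. PSI runs from 0 (unstable) to 1 (stable). Backgrounds are wild type, das1Δ and doa10Δ at 30 °C, and wild type, das1Δ, cdc34-1 and cdc53-1 at 37 °C; 2-3 technical replicates each.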

[3] = genetic background: cdc34-1, temperature: 37 C
[4] = genetic background: cdc53-1, temperature: 37 C
[5] = genetic background: das1 deletion, temperature: 30 C
[6] = genetic background: das1 deletion, temperature: 37 C
[7] = genetic background: doa10 deletion, temperature: 30 C
[8] = genetic background: wild type, temperature: 30 C
[9] = genetic background: wild type, temperature: 37 C
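Further: PSI is a weighted mean of sequencing reads over stability bins, variants kept only with over 10 reads, mCherry proximal and sfGFP distal, peptide attached via GGGS linker.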

Sequence	protein stability index (Saccharomyces cerevisiae [1])	protein stability index (Saccharomyces cerevisiae [2]; [3])	protein stability index (Saccharomyces cerevisiae [2]; [4])	protein stability index (Saccharomyces cerevisiae [2]; [5])	protein stability index (Saccharomyces cerevisiae [2]; [6])	protein stability index (Saccharomyces cerevisiae [2]; [7])	protein stability index (Saccharomyces cerevisiae [2]; [8])	protein stability index (Saccharomyces cerevisiae [2]; [9])
SLSPVFVAVWFL	0.432 ± 0.013	0.466 ± 0.012	0.4933 ± 0.0015	0.383 ± 0.057	0.537 ± 0.01	0.323 ± 0.0075	0.331 ± 0.016	0.474 ± 0.026
YYFCMYFKVTLC	0.0781 ± 0.03	0.0445 ± 0.006	0.15 ± 0.064	0.15 ± 0.028	0.285 ± 0.0044	0.0456 ± 0.019	0.043 ± 0.0087	0.0707 ± 0.042
CLASCRHRTYLC	0.483 ± 0.12	0.652 ± 0.026	0.7142 ± 0.0013	0.641 ± 0.023	0.7223 ± 0.0018	0.338 ± 0.015	0.364 ± 0.025	0.58 ± 0.016
QRFASFFFLHLS	0.227 ± 0.0046	0.411 ± 0.069	0.504 ± 0.061	0.585 ± 0.012	0.6374 ± 0.0022	0.157 ± 0.028	0.142 ± 0.036	0.251 ± 0.011
LFFVCSGVVFSF	0.507 ± 0.04	0.514 ± 0.052	0.5482 ± 0.0011	0.407 ± 0.03	0.5829 ± 0.0055	0.38 ± 0.01	0.384 ± 0.031	0.558 ± 0.011
LNLACCWFVRCR	0.349 ± 0.03	0.311 ± 0.035	0.339 ± 0.011	0.253 ± 0.035	0.4215 ± 0.00083	0.2269 ± 0.00044	0.261 ± 0.021	0.399 ± 0.015
FFACSLLFVLVF	0.228 ± 0.0075	0.0985 ± 0.0033	0.175 ± 0.022	0.177 ± 0.022	0.27 ± 0.0076	0.1392 ± 0.0012	0.17 ± 0.027	0.226 ± 0.014
YTCFLFLLRCMT	0.292 ± 0.003	0.303 ± 0.048	0.3521 ± 0.00065	0.261 ± 0.044	0.415 ± 0.0047	0.1757 ± 0.00026	0.198 ± 0.024	0.294 ± 0.002
LRSPCALVLLLI	0.336 ± 0.0096	0.495 ± 0.022	0.5317 ± 0.0035	0.376 ± 0.029	0.556 ± 0.0056	0.213 ± 0.0037	0.237 ± 0.024	0.441 ± 0.0051
GLFVGCWVFLVL	0.387 ± 0.061	0.344 ± 0.0095	0.445 ± 0.0049	0.307 ± 0.044	0.525 ± 0.012	0.294 ± 0.0069	0.297 ± 0.037	0.486 ± 0.015
VVVVWVVVEIVR	0.169 ± 0.036	0.147 ± 0.033	0.275 ± 0.11	0.164 ± 0.022	0.279 ± 0.033	0.121 ± 0.018	0.133 ± 0.024	0.178 ± 0.012
SPLHGFLFLVLL	0.424 ± 0.021	0.395 ± 0.03	0.445 ± 0.0069	0.403 ± 0.025	0.523 ± 0.012	0.528 ± 0.024	0.403 ± 0.028	0.496 ± 0.021
FFLFLVCLFFFS	0.37 ± 0.026	0.405 ± 0.016	0.36 ± 0.1	0.358 ± 0.032	0.487 ± 0.011	0.36 ± 0.049	0.355 ± 0.031	0.4333 ± 0.0037
LISRLVLVFVIP	0.38 ± 0.011	0.3804 ± 0.00059	0.443 ± 0.012	0.287 ± 0.032	0.529 ± 0.0056	0.284 ± 0.021	0.272 ± 0.026	0.4696 ± 0.0045
LSRHLILFIVIR	0.272 ± 0.036	0.0962 ± 0.042	0.0846 ± 0.02	0.172 ± 0.014	0.2805 ± 0.0024	0.289 ± 0.019	0.174 ± 0.019	0.2008 ± 0.00073
